Measurements published in patent publication US20150166647A1 (VLST, published 2015).

How the values were obtained:
mouse MIP-1β/CCL4 = biological target: T1, mouse MIP-1β/CCL4 (mouse, UniProt P14097 24-92); test: MSD electrochemiluminescence, chemokine coated at 1 µg/mL
T1 construct: also called muMIP-1β
T1 sequence: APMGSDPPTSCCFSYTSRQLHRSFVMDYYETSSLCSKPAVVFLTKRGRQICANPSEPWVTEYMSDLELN

mouse MIP-1α/CCL3 = biological target: T2, mouse MIP-1α/CCL3 (mouse, UniProt P10855 24-92); test: as above
T2 construct: also called muMIP-1α
T2 sequence: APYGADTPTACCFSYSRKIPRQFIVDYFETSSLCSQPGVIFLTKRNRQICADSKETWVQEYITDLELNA

mouse RANTES/CCL5 = biological target: T3, mouse RANTES/CCL5 (mouse, UniProt P30882 24-91); test: as above
T3 construct: also called muRANTES
T3 sequence (P30882 24-91 limits assumed): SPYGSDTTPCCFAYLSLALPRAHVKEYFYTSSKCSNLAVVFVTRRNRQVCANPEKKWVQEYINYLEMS

human MIP-1α/CCL3 [1] = biological target: T4, human MIP-1α/CCL3 (human, UniProt P10147 24-92); test: BIAcore (SPR)
T4 construct: also called Biotin-MIP-1α
T4 sequence: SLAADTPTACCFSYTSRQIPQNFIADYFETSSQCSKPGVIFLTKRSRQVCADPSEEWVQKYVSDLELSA

human RANTES/CCL5 [2] = biological target: T5, human RANTES/CCL5 (human, UniProt P13501 24-91); test: cell-based or functional assay
T5 sequence: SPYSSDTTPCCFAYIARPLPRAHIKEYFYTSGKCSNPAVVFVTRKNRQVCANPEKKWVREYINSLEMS

human MIP-1α/CCL3 [3] = biological target: T4, human MIP-1α/CCL3; test: cell-based or functional assay
human MIP-1α/CCL3 [4] = biological target: T4, human MIP-1α/CCL3; test: ELISA, hybridoma fusion-well supernatant on coated MIP-1α; background approx. 0.150
human MIP-1β/CCL4 = biological target: T6, human MIP-1β/CCL4 (human, UniProt Q8NHW4 24-92); test: ELISA, hybridoma fusion-well supernatant on biotinylated chemokine on streptavidin plate; background approx. 0.150
T6 construct: also called Biotin-MIP-1β
T6 chain: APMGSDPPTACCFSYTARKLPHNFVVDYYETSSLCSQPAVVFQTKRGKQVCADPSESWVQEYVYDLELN

human RANTES/CCL5 [5] = biological target: T5, human RANTES/CCL5; test: as above
human MCP-1/CCL2 [6] = biological target: T7, human MCP-1/CCL2 (human, UniProt P13500 24-99); test: as above
T7 construct: also called Biotin-MCP1
T7 sequence (P13500 24-99 limits assumed): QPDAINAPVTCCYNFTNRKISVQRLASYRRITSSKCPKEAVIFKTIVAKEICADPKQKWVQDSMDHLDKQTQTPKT

human HCC-1/CCL14/CCL14a = biological target: T8, human HCC-1/CCL14/CCL14a (human, UniProt Q16627 28-93); test: MSD electrochemiluminescence assay; chemokine coated at 1 µg/mL, 3C12F at 3 µg/mL; background = BSA
T8 sequence: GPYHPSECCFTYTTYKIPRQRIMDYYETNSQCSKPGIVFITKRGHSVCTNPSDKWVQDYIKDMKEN

MCP-4 = biological target: T9, MCP-4; test: as above
T9 construct: also called MCP-4/CCL13; CCL13
T9 sequence (chemokine, as listed by the source): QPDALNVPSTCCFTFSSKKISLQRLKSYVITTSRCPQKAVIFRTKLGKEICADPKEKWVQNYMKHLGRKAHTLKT

human HCC-2/MIP-1δ/CCL15 = biological target: T10, human HCC-2/MIP-1δ/CCL15 (human, UniProt Q16663 46-113); test: as above
T10 sequence: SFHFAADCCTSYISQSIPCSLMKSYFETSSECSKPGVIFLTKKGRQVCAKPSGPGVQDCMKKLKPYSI

human PARC/CCL18 = biological target: T11, human PARC/CCL18 (human, UniProt P55774 21-89); test: as above
T11 sequence: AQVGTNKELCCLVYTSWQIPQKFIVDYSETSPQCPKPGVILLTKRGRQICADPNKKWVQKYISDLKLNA

MCP-3 = biological target: T12, MCP-3; test: as above
T12 construct: also called MCP-3/CCL7; CCL7
T12 sequence (chemokine, as listed by the source): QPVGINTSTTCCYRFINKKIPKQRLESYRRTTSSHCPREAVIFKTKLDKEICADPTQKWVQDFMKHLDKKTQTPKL

human MCP-1/CCL2 [7] = biological target: T7, human MCP-1/CCL2; test: as above
HCC-4 = biological target: T13, HCC-4; test: as above
T13 construct: also called HCC-4/CCL16; CCL16
T13 chemokine: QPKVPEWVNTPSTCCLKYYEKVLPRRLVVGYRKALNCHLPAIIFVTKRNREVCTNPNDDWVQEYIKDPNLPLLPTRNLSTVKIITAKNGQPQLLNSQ

ELC = biological target: T14, ELC; test: as above
T14 construct: also called ELC/MIP-3β/CCL19; CCL19
T14 chemokine: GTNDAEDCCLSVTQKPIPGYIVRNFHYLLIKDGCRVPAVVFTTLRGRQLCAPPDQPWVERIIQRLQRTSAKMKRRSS

SDF = biological target: T15, SDF; test: as above
T15 construct: also called SDF-1/CXCL12; CXCL12
T15 sequence (chemokine, as listed by the source): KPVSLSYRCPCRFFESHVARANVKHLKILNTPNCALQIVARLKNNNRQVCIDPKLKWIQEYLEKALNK

I-309 = biological target: T16, I-309; test: as above
T16 construct: also called I-309/CCL1; CCL1
T16 chemokine: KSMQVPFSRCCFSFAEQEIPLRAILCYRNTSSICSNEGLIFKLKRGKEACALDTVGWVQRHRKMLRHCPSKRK

IL-8 = biological target: T17, IL-8; test: as above
T17 construct: also called IL-8/CXCL8; CXCL8
T17 sequence (chemokine, as listed by the source): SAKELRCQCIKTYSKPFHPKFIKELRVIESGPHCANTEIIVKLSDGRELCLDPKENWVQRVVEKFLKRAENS

human MPIF-1/CCL23 = biological target: T18, human MPIF-1/CCL23 (human, UniProt P55773 46-120); test: as above
T18 sequence: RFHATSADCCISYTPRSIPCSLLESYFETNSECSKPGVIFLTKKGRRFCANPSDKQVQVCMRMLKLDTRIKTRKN

MDC = biological target: T19, MDC; test: as above
T19 construct: also called MDC/CCL22; CCL22
T19 chemokine: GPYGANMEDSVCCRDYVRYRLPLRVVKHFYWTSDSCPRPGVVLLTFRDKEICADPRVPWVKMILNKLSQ

B1: monoclonal antibody 3C12F (antibody, V domains shown)
VH: EVQLQQSGAELVKPGASVKLSCTASGFNIKDTYIHWVKQRPEQGLEWIGRIDPANGNTQYDPKFQGKATITADTSSNTAYLQLTSLTSEDTAVYYCARRWDYDYAMDYWGQGTSVTVSS
VL: DIQMTQSPASLSASVGETVTITCRGSGNIHNYLAWYQQKQGKSPQLLVYNAKTLADGVPSRFSGSGSGTQYSLKINSLQPEDFGSYYCQHFWSTPYTFGGGTKLEIK
notes: also called MAb 3C12F
B1: no binding (tested: 3 µg/mL) (mouse MIP-1β/CCL4); no binding (tested: 3 µg/mL) (mouse MIP-1α/CCL3); no binding (tested: 3 µg/mL) (mouse RANTES/CCL5). For the same binder, the Kd (human MIP-1α/CCL3 [1]) was 49 nM, the “IC50 of inhibition of chemotaxis (5 ng/mL chemokine)” value (human RANTES/CCL5 [2]) was 3 to 5 µg/mL and the “IC50 of inhibition of chemotaxis (5 ng/mL chemokine)” value (human MIP-1α/CCL3 [3]) was 3 to 5 µg/mL. For the same binder, the ELISA signal (human MIP-1α/CCL3 [4]) was 1.84, the ELISA signal (human MIP-1β/CCL4) was 1.92 and the ELISA signal (human RANTES/CCL5 [5]) was 2.61. The ELISA signal (human MCP-1/CCL2 [6]) was 0.189, the binding result (human HCC-1/CCL14/CCL14a) was “no binding (tested: 3 µg/mL)” and the binding result (MCP-4) was “no binding (tested: 3 µg/mL)”. B1: binds (human HCC-2/MIP-1δ/CCL15); no binding (tested: 3 µg/mL) (human PARC/CCL18); no binding (tested: 3 µg/mL) (MCP-3). B1: no binding (tested: 3 µg/mL) (human MCP-1/CCL2 [7]); no binding (tested: 3 µg/mL) (HCC-4); no binding (tested: 3 µg/mL) (ELC). B1: no binding (tested: 3 µg/mL) (SDF); no binding (tested: 3 µg/mL) (I-309); no binding (tested: 3 µg/mL) (IL-8). B1: binds (human MPIF-1/CCL23); no binding (tested: 3 µg/mL) (MDC).
